# Reference: the DeepSol protein solubility set
# Assay: soluble on expression in E. coli; label from the status in PepcDB or PDB records
row,Sequence,soluble on expression in E. coli
1,MLITHLIDSLSDRAVITPLTPTSVIIYDKNELKVYVGFTNNRNSLEYTKEVVLLLSTEIPKKAEIREIIVSKNGDYVILEGPRSLFVVRIGAEILVAKPDRLPSECFCECYPLHDSLLLQNISLSVVKVRLLPEKCDEKTFVTAVLFSDNCIRFYNLQKKFDSLLLAVDFRNHLHQVHDENVANNTFGLQKALVSFDLIPPKPNTSHFSIISIDSDCDFYTSFVHFSCFKEGYAPRIHRIEPVDGLPCDPLDLRYIQTTNPRICSVFVLVSGGGVLSHLVVFPNEFGEFRFLVKDQLRLPSSNGDPRIVQNQIRSLKVSRYEIATSSSLFSVNIFPWFEALTSISPTSTLEKETRVSELVDAVIPSDELSNTTKWTGARALRAVSVQLTQSLATEEEELLPESENIMHLVILENKDGQPAHLFNISTFDNIWSTENKTSFGRDSVSQPPMKSTGSLEQQLAALKPLAACVISEKVSCEEAIDAAMKFFDAVDERLKKHCEISKLFVERCLAVSSSAQALDEKQQSVDQRLIEETNTVEELKIRMHETKERMEGARKGINVLFHRVDENVPLSDNEIRIFERLKEHQKMLSDMTKLVPKMTLDSNEIHRMANIVLKKRGTGEEQNRFAAVEKNATEIESLEARENKLNTGISELSI,not soluble
2,MLKFNEEQQIKDIRGALALRSDVEKVVDQVWTKGFDAVYYIGIGGTYASAMQAVTYANGKSNLPIYVQHAAEYYTTGNKRLTEKSFVILSSVTGTTQEVVQAVQEIKKVGATLFGFIDAKDSLLADLCDYVVTYPAPGTEQIKFFMVADRLMQKNNEFTDYENYYQELEEYLPTGLAEAEKSADAFGLAFAEKHRHDSIHYFIGAGNQWGAVYSYAMCYWEEQSWLRSKSIHAAEFLHGTLEIVDETTPVTLFIGEDEQRPLAERVAKLLPKICANYTIIDSKAYELPGISEKYRGRVVSFLLMHAVTQRIDAHVEKLNCHPLEIRRYYRQFDY,not soluble
3,MLKLPPLSLYIHIPWCVQKCPYCDFNSHALKGDVPHQEYVDHLLADLDADLPLAGGRALHSIFIGGGTPSLLSAEAMQALLDGVRARIPLTPDAEITMEANPGTVEADRFSGYQRAGINRISIGVQSFDPQKLTRLGRIHGPEEAKRAAQLATGLKLRSFNLDLMHGLPDQSLDEALDDLRQAIALNPPHLSWYQLTIEPNTLFSSRPPTLPDDDALWDIYEQGHALLSAAGYEQYETSAYAKPGYQCQHNLNYWRFGDYLGIGCGAHGKLTFSDGHILRTVKVRHPRGYMQGTYMDKQHDVANDDRPFEFFMNRFRLLEAAPRADFTAYTGLEEHSIRPQLDQALAQGYLTETATHWQITEHGKLFLNSLLELFLAEELEHHHHHH,not soluble
4,MLKPLLAIFMISSALSIPLNRSDFLENDHVELMPLEKDGELNDKFRQEMIFSHNLDPSDSKQLSESIKEMFKKTDVNDDGFLTAGELKQQIRKNMEEHLEKSKNDSEIFFDIVDTNKDGSIVWEEFEPHFSKMHEKDHSDSELMDVHTEDPHRVDDEKRMFNRSDITRDGRLDRMEWHIFLHPEYSAQGLVEIVNDLMGVYDKNNDEVVSQDDFVNGIPGTVDELNPEFENMEKLEKERRLREFNEEIDENSDGKATFRELYDYVDPQNFRLASKEVNDIMMLTDANNDEKLSLEELLERDWLLARSSLLSARSSLHDEM,not soluble
5,MLKSELRKKVLHKRINLSEEERRRLSEKVISNLKSLPEFKKSKKVALYCPIKGEVDLTPLFPEVLKEKELILPKVEGNEISLYRVHSPACLGVGAFGIMEPVEGERVNPEDVDFIAVPGVAFDLEGYRLGFGKGYYDRLLKRVKGLKVGVAYSFQVFERLPRDAWDIPVDVLVTEKNVRRLRDGRSLEHHHHHH,soluble
6,MLKSSASAPAKAILFGEHAVVYSKPAIAAAIDRRVTVTVSESSSTHVTIPSLGIRHSSERPSGGILDYIGRCLELYHDASPLDIRVEMEIPAGSGLGSSAALTVALIGPLDRYHGRDHGPGETAARAHRVEVDVQGAASPLDTAISTYGGLVYLDSQRRVRQFEADLGDLVIAHLDYSGETARMVAGVAERFRRFPDIMGRIMDTVESITNTAYRELLRNNTEPLGELMNLNQGLLDSMGVSTRELSMMVYEARNAGAAGSKITGAGGGGSIIAHCPGCVDDVVTALNRNWKAMRAEFSVKGLI,soluble
7,MLLAGLTSCQQKGYTITGTVDSTLNLDGNMVYIQLSQGNNLDSTTIRNGAFTFTGEHIDTAKLAYIVTASPEHNVVPIIFILEDGKISAKIGEYAAKGTPLNEENFKYSAKINELENSFKLKMEEIQADTARAAEETQAMLEKEYTAMLGEKSKITTELYQSHTNDALGARLLQNILYGEGSDSDVIAEARKKAGPIVLAHPNIVHLLAMIDNLADTQPGKMAKNFAGTDAEGNEVELFKYVGQGNYAVVDFWASWCGPCRREIPYIAEANAKFAEKGLQVVGIVVWDKMEDHLKAKEALNVVWPQIFDAKNVATDMYGIQGIPQVILFGPDGTIIERDLRGEKLIEKLSEIYNSNKK,not soluble
8,MLLDVQHGQFGFIKGGIIAVIWFSLSRTINCGQLNLECFEFWLPTSQLLVLDVCLFDAFALEHHHHHH,not soluble
9,MLLPTPEDLKKRRNELGLTQSDLAKRAGVSQPLIARIESGDVDPRLSTVRKILDAFEEAEKERQILIRDLMHSPVLHVSPEDSVEEVVNLMHVHGFSQIPVLDRGIPVGSVSEDMIVRLMGESKKKPISQLKVSGIMGESFPTVSPGISISVVSHILEGNPAVLVVEKGTVVGVVTKHDVMKLLQGQ,not soluble
10,MLLQLAEDRRRLKGVQSTVKKAEIKVELLPKYAAWAEGVLAAGGAQQDDVLMYVMLWRIDAGDYAGALEIGRHALRHGWVMPLGNRNVQTVLAEEMADAAQSAMLATTGFDVDLLLQTLELTDGLDMPDQSRARLHKAIGAVLSESNPASALNHLNHALQLDPRCGVKKDKQQLERRLRNDSR,not soluble
11,MLLQTLEERLATLRQRCAPLAQHATLSARFDRHLFRTRSTLLQGYLEEAGANLVALRQAVKHEQLPQVAWLAEHLASQLEAISRETAAWSLRQWDAAAPGLGRWQRRRIQHQEFERRLLAMTQERKIRLAQATGLVEQQTLQKEVEIYEGRLARCRHALEKIENVLARLTR,not soluble
12,MLNIGYPFWPSMRFKPRPFITPVRFKCLFCLDCCRGRHVYLTVSDIKRLVGSGHDPQKFLTFSIEGGNIRFVLSVREWDLGCIFHDPGTGKCTIHPIRPLICRIYPFMVSKRPLGVEGEEPVQYKGRMLWLYYDESCPGINSQEGEVITPEEIAELGVKFEEELSRTTFEDVIKVLLEHHHHHH,soluble
13,MLNLRGVEIRKGALDGPAQARLIEALRPVLKAAPLFTPTMPNGKPLSVRMTSAGSLGWVTDKGGYRYQPTHPKGMAWPAIPPEVLDLWHGVTGQDRAPDCCLINYYGEGARMGLHQDRDEADLTWPVVSLSLGDDALFRIGNTSRGGKTESVWLNSGDVVVMGGPARLIYHGIDRIRFGSSRLLPKGGRLNLTLRVAGLEHHHHHH,not soluble
14,MLNNDVLRSLRYLLDLPDAHLAELAARFGEQVEADLLEAYLKKEDEDGFQACPDRYLARCLDGLIIQRRGRDESRPLPPLELPLSNNMILKKLRVAFELKEEDLHAILDSVDFPVSKPELSALFRKPGHSNYRTCGDQLLRNFLKGLTLRVRG,not soluble
15,MLNVVKRDGRQVVFDSNKIFNAIKGAADEIGYDIKQSDILELTQKVIGRVEDLKIREISVEEVQNLVEEVLLENGNKEIGMAYCTYRKERTKVRE,not soluble
16,MLPFDPSTRYDRQVRLWGEEGQASIGSTSACVLGSDSLATEILKSLVLAGVQSFYVVDDAKVEQADIGQNFFLHADDIGRSRAEATLEKLTELNPSVSGSASSQPPTALAMEDVEKLTTFSVVVAANQNEEIDTTFAKVLYNIRVPFICIKTFGLIGTIRICIKEHTIANSHEENPRPDLRLDAPFSKLIEMINETNLDEMTLEQLRHTPYILLHFKALEVFRKQRNDPEAFPSTTAERKELQAILMSFRRSSEESGTKDSENFDEAKAAVIRAFQRTTIGSSVKSILSSPQCSTSTRPFWLICEALRRFVTENNNLLPLRGTLPDMTSDSSRYTRLATLFHEKALSDAQEVLRLTREVEKERGVGDVISDDVCYRFCKNADRIRVQYGDVLDYNEETKAIVEKIRESNIDEETRNQKVDEATWMLLMRAVGRFQKEKGRYPGTNGVPVSIDAQDLKKRVEVLIREALKDEQDFTSISNKVTDTAIAEICRFGAAELHVISSYVGGIAAQEIIKLATNQYVPIDNTFIFDGHTQESATFKF,not soluble
17,MLPINRQQHILKWLKEEGSLRISDISARFGVSEMTVYRDVNQLVQSNQVIKTAGGITLPVRTPQTDHMCSYCLKPVNQAHSVQLITVNQDIEQLCCAHCAFLRYADKTEEVSHLICRDFLLQTTVSAGSAYFVVNAELNLHCCQPQAIPFATLDHAERFQKGFGGAVCTFDQALEDMLQDRKKRCTCTKK,soluble
18,MLQCYNCPNPTADCKTAVNCSSDFDACLITKAGLQVYNKCWKFEHCNFNDVTTRLRENELTYYCCKKDLCNFNEQLENC,soluble
19,MLQINRHILDNGLRLVHAQDTSTQMVALNILYNVGARDENPEHTGFAHLFEHLMFGGSVNIPDYDAPLQLAGGENNAWTNNDITNYYLTVPRQNVETGFWLESDRMLSLDFSERSLEVQRGVVMEEFKQRCLNQPYGDVGHLLRPLAYRVHPYQWPTIGKELSHIANATLEEVKDFFFRFYAPNNAVLAVTGNISFEEALHLTEKWFGPIPRREVPLRQLPPEPVQTEERRLVVERNVPLDSLFMAYHMCDRADSDYYAFDILSDILSNGRSSRLNQHLVQEKQLFSSIDAYISGTLDAGLFHISGKPAAGVSLEEAEAAVREELNELQSALIQEQELEKVKNKFESTQIFGNINYLNVATNLAWFELNGRAEDMEKEVERYRAVTADRLNAVAQTAFREENGVVLYYKSSRGEKDETYI,not soluble
20,MLQRTLAKSISVTGVGLHSGERVALTLHPAPENSGISFRRTDLDGEMGEQIKLTPYLINDTRLSSTIVTDKGVRVGTIEHIMSALSAYGIDNALIELNAPEIPIMDGSSLPFIYLLQDAGVVDQKAQKRFLKILKPVEIKEAGKWVRFTPYDGFKVTLTIEFDHPVFNRSSPTFEIDFAGKSYIDEIARARTFGFMHEVEMMRAHNLGLGGNLNNAIVIDDTDVLNPEGLRYPDEFVRHKILDAIGDLYIVGHPIIGAFEGYKSGHAINNALLRAVLADETAYDRVEFADSDDLPDAFHELNIRTCGLEHHHHHH,not soluble
21,MLQVCCYTSEGYKYAVGIDLVRFFDTVNHSFLLRILSRTINDGRVISLIHKYLTSGVMIGKHYEPSIEGTPQGAPLSPLLSNILLNELDKELERRGHCFVRYADDSMILCKSKRSAERVCSSITDFSFYFTKGKCRLCVHKTTKEKFKRKVKSLTRRSNSMGYAQRKEILWQTFRGWIGYFKYADMRSLLIPLDQWYRRHLRMCIWKCWKRVKTRFSNLQKCGIPKGKA,not soluble
22,MLQVLGRLINILFPLLRFILGIWWEKLRGKDPTVSRAKAIQLRELLTNLGPTYIKVGQALSTRPDLVPPVFLDELTTLQDQLPSFPNEVAYRFIEEELGAPAEEIYAELEHHHHHH,not soluble
23,MLRATNNRRTSNNVEKDSLQMAKHGNGPLKPVNAQGLQTKREAREILALKPSNPAPVETAQKSQRINLQDAETKCLAMADDIYKYLVHHEKKYLLEECFMEGGEPTPKMRRILVDWLVQVHVRFHLTPETLHLTVFILDRMLQKKVTSKADLQLLGISAMFVASKFEEVYLPDIHDYEFITENTYSKKQILAMEQTILNSLNFDLSCPSSLVFLRCLSRILSENDASPIDNQAFCYTYNISKCLGELALLDSVMASTPRSHIASASMIIALEVHPVDGIEAENAVSVICKQLGASKKVIEDAVALLAEVSYKNFKQGKLVAIKNKYQSSKLAQVSNLMTDDVLEKINRMGQNAKVDASEME,soluble
24,MLRCADGALYTGVSTDVARRYRQHQAGKGARYTRLNPPLAVELVIEYPDRSAALRAEHAFKRLSAAAKRDFLRAHGDAGPSSLEHHHHHH,not soluble
